Measurements reported in publication PMC7705443 (2020).

Biological target: SARS-CoV-2 RBD (residues 319-541), C-terminal his-tag (SARS-CoV-2, UniProt P0DTC2 319-541)
Assay: SPR

B1: P17 antibody (full-length IgG1) (antibody, V domains shown)
VH: QQLVESGGGVVQPGRSLRLSCAASGFTFSSYAMHWVRQAPGKGLEWVAVISYDGSNKYYADSVKGRFTISRDNSKNTLYLQMNSLRAEDTAVYYCARHATLMNNKDIWGQGTLVTVSS
VL: not shown
koff: 0.000221 s⁻¹
